This note sets out measurements from patent US20250171542A1 (ADEPT THERAPEUTICS, published 2025).

The target of assay [1] is T1, PD-L2 (Sino Biological, Cat #10292-H08H) (UniProt Q9BQ51 20-219).
T1 sequence (looked up): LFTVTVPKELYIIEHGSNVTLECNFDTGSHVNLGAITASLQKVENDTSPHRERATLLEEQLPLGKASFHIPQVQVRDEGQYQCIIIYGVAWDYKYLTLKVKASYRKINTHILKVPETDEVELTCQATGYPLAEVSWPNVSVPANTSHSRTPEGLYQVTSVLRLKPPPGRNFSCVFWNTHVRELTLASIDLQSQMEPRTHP
Nature of the assay: ELISA. A general note: ELISA stands for enzyme-linked immunosorbent assay.

Assay [2] deals with T2, human PD-L1-His (Sino Biological, Cat #10084-H08H) (human, UniProt Q9NZQ7 19-238).
T2 construct: Bought protein; also called human PD-L1 ECD-His; recombinant human PD-L1-His protein; not shown: His tag
T2 sequence (Q9NZQ7 19-238): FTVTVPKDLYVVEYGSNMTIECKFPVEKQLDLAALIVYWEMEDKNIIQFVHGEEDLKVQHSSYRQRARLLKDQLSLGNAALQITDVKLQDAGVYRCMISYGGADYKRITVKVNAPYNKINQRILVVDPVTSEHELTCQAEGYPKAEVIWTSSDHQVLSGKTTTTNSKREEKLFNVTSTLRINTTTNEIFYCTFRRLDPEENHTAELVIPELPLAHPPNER
Nature of the assay: BLI (Gator), antibody on HFC probe, human PD-L1-His in solution. As to the method:
The affinity of the binding of the exemplary anti-PD-L1 antibodies of the present disclosure was determined. Assay was performed according to the protocol recommended by Gator or Gator Plus (Gator Bio Inc.). Briefly, human PD-L1-His (Sino Biological, Cat #10084-H08H) was serially diluted 4-fold, starting at 4 μg/ml. After three times of regeneration in generation buffer (Gator Bio, Cat #120012) and neutralization of HFC probe (Gator Bio, Cat #160003), 1 μg/ml of antibody to be tested in Q buffer (Gator Bio, Cat #120010) was immobilized onto HFC probe. After a baseline step, probe immobilized with antibody was dipped into antigen solutions. The association and dissociation of antigen from antibody was measured on BLI machine Gator. Affinity was calculated using Gator Bio analysis software.
Table 22 below summarizes the binding affinity to human PD-L1 using Gator.

Assay [3] deals with T3, cynomolgus PD-L1-His (Sino Biological, Cat. 90251-C08H) (cynomolgus, UniProt Q9NZQ7 19-238 (human entry)).
T3 construct: Bought protein; also called Cyno PD-L1; Cynomolgus PD-L1 ECD-His; not shown: His tag
T3 sequence (Q9NZQ7 other isoform, or with tags, fused parts or gaps C08H C08H limits assumed): as the sequence (Q9NZQ7 19-238) above, with A33T, A34S, S62N, R68Q, Q82R, F173L, T185A, T192I, H215L counted along it
Nature of the assay: BLI (Gator), cynomolgus PD-L1.

For assay [4], the target named is T2, human PD-L1-His (Sino Biological, Cat …). As to the kind of experiment: ELISA, coated human PD-L1-His. The protocol:
Briefly, Maxisorp plates (Nunc) were coated with 100 ul/well of 0.5 μg/ml human PD-L1-His (Sino Biological, Cat #10084-H08H) or cynomolgus PD-L1-His (Sino Biological, Cat. 90251-C08H) protein diluted in 1×PBS (GIBCO) overnight at 4° C. Plates were washed three times with 300 μl/well washing buffer (1×PBST, diluted from 20×PBST (Thermo Scientific) with distilled water)) and then blocked with 300 μl/well of blocking buffer (1×PBST/I % BSA) for 2 hours at RT on shaker (100 rpm). Plates were washed and added with 100 μl/well of testing antibodies, which were serial diluted with assay buffer (PBST/1% BSA). The antibodies were incubated at room temperature for 2 hours on plate shaker at 100 rpm. Plates were washed. One hundred microliter of horseradish peroxidase (HRP) conjugated detection antibody was added into each well and incubated at room temperature for 1 hour on plate shaker at 100 rpm. Plates were washed and added with 100 μl/well TMB substrate for color development at room temperature in dark for up to 10 minutes. After addition of 50 μl/well of stop solution (1N H₂SO₄), plates were read at 450 nm on a plate reader (SpectraMax M5).
Anti-HEL isotype control (Biolntron) was used as negative control.

In assay [5] the target is human PD-L1 expressed on cell surface (human, UniProt Q9NZQ7 19-290). As to the kind of experiment: cell-based or functional assay.
human PD-L1 expressed on cell surface, sequence (Q9NZQ7 19-290 limits assumed): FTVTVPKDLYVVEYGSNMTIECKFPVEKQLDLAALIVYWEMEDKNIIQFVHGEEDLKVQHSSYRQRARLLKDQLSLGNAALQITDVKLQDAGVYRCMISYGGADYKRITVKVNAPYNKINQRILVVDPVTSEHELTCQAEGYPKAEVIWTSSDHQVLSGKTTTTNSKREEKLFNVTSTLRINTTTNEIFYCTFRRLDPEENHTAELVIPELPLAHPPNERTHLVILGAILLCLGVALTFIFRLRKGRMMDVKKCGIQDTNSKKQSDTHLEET

B1: 74F4 (antibody, human IgG1, V domains shown)
VH: QEQLEESGGGLVQPEGSLTLTCTASGFSFSGDYYMSWVRQAPGKGLEWIASIYTGSLNTYYATWAKGRFTISLTSSTTVTLQMTSLTAADTATYFCARRNKNADYGHFDLWGPGTLVTVSS
VL: YDMTQTPASVEVAVGGTVTIKCQASQSINDRLAWYQQSPGQPPKLLIYGASTLASGVPSRFKGSGSGTDFTLTISDLECADAATYYCQQGWTVSSLDNAFGGGTEVVAK
For the molecule B1, in assay [1], the binding result was “no binding”. In assay [2], this molecule yielded an equilibrium dissociation constant (Kd) of 0.36 nM, a koff of 0.000238 s⁻¹ and a kon of 648000 M⁻¹ s⁻¹. In assay [3], this molecule gave a Kd of 0.01 nM, a koff of 5e-06 s⁻¹ and a kon of 387000 M⁻¹ s⁻¹. Also, the midpoint of the response in assay [4], the EC50, lay at 0.0157 nM.

B2: 57F11 (antibody, human IgG1, V domains shown)
VH: QEHLEESGGGLVQPEGALTLTCTASGFSFSGDYYMSWVRQAPGKGLEWIASIYTGSLNTYYATWAKGRFTISIASSTTVTLQVTSLTAADTATYFCARRTKNGDYGYFDLWGPGTLVTVSS
VL: YDMTQTPASVEVAVGGTVTIKCQASQSINDRLAWYQQKPGQPPKLLIYAASTLASGVPSRFKGSGSGTEFTLTISDLECADAATYYCQQGWTVSSLENAFGGGTEVVAK
As to B2, the binding result in assay [1] was “no binding”. In addition, in assay [2], the Kd stood at 0.31 nM, the koff turned out to be 0.000113 s⁻¹ and the kon amounted to 371000 M⁻¹ s⁻¹. For the same molecule, in assay [3], binding was characterised by a dissociation constant (Kd) of 0.27 nM, the koff stood at 0.000101 s⁻¹ and the kon is 373000 M⁻¹ s⁻¹. In assay [4], the midpoint of the response, the EC50, lay at 0.0216 nM.

B3: 73C8 (antibody, human IgG1, V domains shown)
VH: QEQLEESGGGLVQPEGSLTLTCTVSGFSFSGDYYMSWVRQAPGKGLEWVASIYTGSLNTYYATWAKGRFTISLTSSTTVTLQMTSLTAADTATYFCARRNKNADYGHFDLWGPGTLVTVSS
VL: YDMTQTPASVEVAVGGTVTIKCQASQSINDRLAWYQQKPGQPPKLLIYAASTLASGVPSRFRGSGSGTDFTLTISDLECADAATYYCQQGWTVSSLDNAFGGGTEVVAM
As for B3, in assay [1], the binding result is given as “no binding”. In assay [2], this molecule came in with a Kd of 0.12 nM, a koff of 9.39e-05 s⁻¹ and a kon of 804000 M⁻¹ s⁻¹. In assay [3], this molecule came in with a Kd of at most 0.03 nM, a koff of at most 1e-05 s⁻¹ and a kon of 344000 M⁻¹ s⁻¹. The molecule further had an EC50 in assay [4] of 0.016 nM.

B4: 55H3/76D6 (antibody, human IgG1, V domains shown)
VH: QEQLEESGGGLVQPEGSLTLTCTVSGFSFSGDYYMSWVRQAPGKGLEWVASIYTGSLNSYYATWAKGRFTISLTSSTTVTLQMTSLTAADTATYFCARRNKNADYGHFDLWGPGTLVTVSS
VL: YDMTQTPASVEVAVGGTVTIKCQASESINDRLAWYQQKPGQPPKLLIYAASTLASGVPSRFRGSGSGTDFTLTISDLECADAATYYCQQGWTVSSLDNAFGGGTEVVAM
Turning to B4, in assay [1], the binding result is “no binding”. Besides, in assay [2], the Kd was 0.64 nM, the koff turned out to be 0.000317 s⁻¹ and the kon worked out at 498000 M⁻¹ s⁻¹. The “IC50 (nM), Promega PD-1/PD-L1 blockade reporter assay” value in assay [5] was found to be 0.97 nM. In assay [3], this molecule had a Kd of 0.03 nM, a koff of 1.1e-05 s⁻¹ and a kon of 307000 M⁻¹ s⁻¹. In addition, the response in assay [4] was half-maximal at 0.0199 nM (EC50).

B5: 69D10 (antibody, human IgG1, V domains shown)
VH: QEQLEESGGGLVQPEGSLTLTCTASGFSFSGDWYMSWVRQAPGKGLEWIASIYSGSLNTYYATWAKGRFTVSLTSSTTVTLQMTSLTAADTATYFCARRNKNADYGHFDLWGPGTLVTVSS
VL: YDMTQTPASVEVAVGGTVTIKCQASQSIGNALAWYQQKPGQPPKLLIYATSTLASGVPSRFKGSGSGTEFTLTISDLECGDAATYYCQQGWTVSSLDNAFGGGTEVVAK
For the molecule B5, the binding result in assay [1] is “no binding”. In assay [2], this molecule returned a dissociation constant Kd of 9.09 nM, a koff of 0.00653 s⁻¹ and a kon of 718000 M⁻¹ s⁻¹. In assay [3], this molecule returned a Kd of 0.18 nM, a koff of 7.7e-05 s⁻¹ and a kon of 428000 M⁻¹ s⁻¹. It took 0.0215 nM to reach a half-maximal effect in assay [4] (EC50).

A word on the Kd: it is the concentration at which binding is half-saturated. Higher therefore signals lower affinity. In general, koff refers to the rate constant with which the complex falls apart. The low end stands for a long-lived complex, the high end for a short-lived complex. Broadly, the kon is the second-order rate constant of association. A higher kon goes with faster complex formation. One may read the EC50 as the concentration that produces a half-maximal response. Read a low EC50 as a more potent agent.
